Assay results reported in PMC9034101.

Biological target: Cy5 N-terminal-labeled WWP2 (human) (UniProt O00308)
Test: MST; 10 nM N-terminal Cy5-labeled WWP2, NDP52 (up to 48 uM) or OPTN (up to 60 uM) in two-fold serial dilution; 25 mM Hepes pH 7.8, 250 mM NaCl, 1 mM TCEP, 0.5 mg/ml BSA, 0.05% Tween-20; room temperature; apparent KD, quadratic model

B1: NDP52 (natural protein)
chain: MEETIKDPPTSAVLLDHCHFSQVIFNSVEKFYIPGGDVTCHYTFTQHFIPRRKDWIGIFRVGWKTTREYYTFMWVTLPIDLNNKSAKQQEVQFKAYYLPKDDEYYQFCYVDEDGVVRGASIPFQFRPENEEDILVVTTQGEVEEIEQHNKELCKENQELKDSCISLQKQNSDMQAELQKKQEELETLQSINKKLELKVKEQKDYWETELLQLKEQNQKMSSENEKMGIRVDQLQAQLSTQEKEMEKLVQGDQDKTEQLEQLKKENDHLFLSLTEQRKDQKKLEQTVEQMKQNETTAMKKQQELMDENFDLSKRLSENEIICNALQRQKERLEGENDLLKRENSRLLSYMGLDFNSLPYQVPTSDEGGARQNPGLAYGNPYSGIQESSSPSPLSIKKCPICKADDICDHTLEQQQMQPLCFNCPICDKIFPATEKQIFEDHVFCHSL
Binder B1 has a Kd of 19 µM.
